“Also recorded” adds a separate entry of the source.

One data set concerns the target α5β1 (Homo sapiens, UniProt P05556+P08648). Description: Fluorescence polarization binding of FITC-labeled disintegrins to soluble integrin α5β1. The settings on record: VCN with incorporated echistatin sequence. The source says: FIG. 3 depicts amino acid sequences of this disclosure. Mass spectrometry and crystallographic data confirmed that CN (SEQ ID. NO. 1) is a homodimer with the 2 chains oriented in an antiparallel fashion and held together by 2 inter-chain disulfide bonds. […] Recombinant CN is SEQ ID NO. 2. VCN is SEQ ID NO. 3. Echistatin is SEQ ID NO. 4.
Further, ^131I-VCN retained essentially 100% radioiodine during dialysis against phosphate buffered saline, pH 7.4, for 15 days. […] Binding kinetics were calculated from the fluorescence anisotropy data generated by steady state binding of FITC-labeled disintegrins to either purified (αvβ3, αvβ5) or recombinant (α5β1) functional human integrins. The dissociation constants for interactions of either CN or VCN with soluble integrins were determined by Scatchard analysis using a non-linear curve fit.
For orientation: In fluorescence polarisation assays a small probe gives low polarisation when free and higher when bound to something large.

In the next data set the test system is platelet aggregation. In words: Inhibition of platelet aggregation (bioactivity after radioiodination). The class given is cell-based. As to conditions: radioiodinated VCN.
Data set [1] in a line: Toxicology study, single i.v. escalating doses in rats. The format is in vivo. The settings on record: single i.v. 3 mg/kg to 75 mg/kg, 14 days. The method, then:
Rats were evaluated for signs of physical toxicity or stress and sacrificed after 14 days.

Another data set concerns U87 GBM cells. In words: Intracranial U87 GBM tumor model, Alzet pump delivery to the brain. The format is in vivo. As to conditions: 40 μg daily over 2 weeks via Alzet pump, U87 GBM in nude mice. The source says:
Finally, in an intracranial tumor model, U87 GBM cells were stereotactically implanted into nude mice. […] After 2 weeks the mice were euthanized and their brains removed. The average tumor size of animals treated with PBS was several times larger than animals treated with VCN.

The nature of data set [2]: Hemorrhage after brain injection in healthy, tumor-free rats. The class given is in vivo. As to conditions: no difference to PBS-injected brains. The source says:
(§1) All previous work was done with CN, the precursor of VCN. Applicants previously determined whether CN induces hemorrhage in healthy, tumor-free rats.

The nature of data set [3]: Immune response after intracranial injection. The format is in vivo, rodents.
Description: as §1

A further data set has as its system C6 rat GBM cells. Description: Gamma camera biodistribution after intracranial injection, C6 rat GBM. The class given is in vivo, rats. As to conditions: given intracranially as ^131I-CN. The method, then:
A Gamma camera was used to determine biodistribution of ^131I-CN in rats after intracranial injection of C6 rat GBM cells, and tumors allowed to grow for 7 days. Two tumor-free rats were also administered ^131I-CN intracranially. Whole-body distribution of radioactivity was imaged at 0 and 24 hours after injection of ^131I-CN.
CN is localized to the brain in all animals at 0 hours. […] This retention was attributable to CN's specific binding to integrin αvβ3, which has been shown previously by us and others to be overexpressed in glioma cells, but not in normal brain tissue. Thus, CN delivered intratumorally binds to the expected integrins in GBM in vivo and accumulates specifically at the site of the tumor. Based on structural and functional similarities between VCN and CN, we anticipate identical findings with VCN for GBM localization.

For the next data set, the system named is GBM. In words: Survival study, intratumoral delivery via Alzet pump in GBM-bearing animals. The class given is in vivo.

Chain of α5β1 (P08648 42-894 limits assumed): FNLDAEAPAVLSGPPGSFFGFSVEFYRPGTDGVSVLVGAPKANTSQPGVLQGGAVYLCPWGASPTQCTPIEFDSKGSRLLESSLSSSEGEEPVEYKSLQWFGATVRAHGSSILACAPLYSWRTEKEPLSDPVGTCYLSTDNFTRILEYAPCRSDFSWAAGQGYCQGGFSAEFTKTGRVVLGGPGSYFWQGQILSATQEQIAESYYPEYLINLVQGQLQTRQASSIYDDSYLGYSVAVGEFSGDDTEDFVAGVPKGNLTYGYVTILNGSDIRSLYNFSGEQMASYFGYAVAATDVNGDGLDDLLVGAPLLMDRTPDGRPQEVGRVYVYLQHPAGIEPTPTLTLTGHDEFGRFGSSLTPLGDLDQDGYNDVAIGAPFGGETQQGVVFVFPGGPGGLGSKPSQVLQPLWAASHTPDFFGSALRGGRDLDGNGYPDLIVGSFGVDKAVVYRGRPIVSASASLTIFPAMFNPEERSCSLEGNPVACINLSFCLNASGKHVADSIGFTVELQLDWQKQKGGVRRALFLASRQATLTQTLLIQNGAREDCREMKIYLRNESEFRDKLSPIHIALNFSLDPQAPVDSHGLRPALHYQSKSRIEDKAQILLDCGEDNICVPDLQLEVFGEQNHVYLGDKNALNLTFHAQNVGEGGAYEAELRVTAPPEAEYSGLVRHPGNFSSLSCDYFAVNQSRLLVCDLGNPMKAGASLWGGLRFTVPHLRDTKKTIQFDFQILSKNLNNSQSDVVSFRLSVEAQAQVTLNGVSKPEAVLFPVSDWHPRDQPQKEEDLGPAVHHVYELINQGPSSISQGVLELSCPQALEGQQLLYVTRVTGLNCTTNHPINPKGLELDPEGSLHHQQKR
Chain of α5β1 (P08648 895-995 partner limits assumed): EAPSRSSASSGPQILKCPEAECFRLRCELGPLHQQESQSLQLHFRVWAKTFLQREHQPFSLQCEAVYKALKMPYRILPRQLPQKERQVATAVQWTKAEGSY
Chain of α5β1 (P05556 21-728 limits assumed): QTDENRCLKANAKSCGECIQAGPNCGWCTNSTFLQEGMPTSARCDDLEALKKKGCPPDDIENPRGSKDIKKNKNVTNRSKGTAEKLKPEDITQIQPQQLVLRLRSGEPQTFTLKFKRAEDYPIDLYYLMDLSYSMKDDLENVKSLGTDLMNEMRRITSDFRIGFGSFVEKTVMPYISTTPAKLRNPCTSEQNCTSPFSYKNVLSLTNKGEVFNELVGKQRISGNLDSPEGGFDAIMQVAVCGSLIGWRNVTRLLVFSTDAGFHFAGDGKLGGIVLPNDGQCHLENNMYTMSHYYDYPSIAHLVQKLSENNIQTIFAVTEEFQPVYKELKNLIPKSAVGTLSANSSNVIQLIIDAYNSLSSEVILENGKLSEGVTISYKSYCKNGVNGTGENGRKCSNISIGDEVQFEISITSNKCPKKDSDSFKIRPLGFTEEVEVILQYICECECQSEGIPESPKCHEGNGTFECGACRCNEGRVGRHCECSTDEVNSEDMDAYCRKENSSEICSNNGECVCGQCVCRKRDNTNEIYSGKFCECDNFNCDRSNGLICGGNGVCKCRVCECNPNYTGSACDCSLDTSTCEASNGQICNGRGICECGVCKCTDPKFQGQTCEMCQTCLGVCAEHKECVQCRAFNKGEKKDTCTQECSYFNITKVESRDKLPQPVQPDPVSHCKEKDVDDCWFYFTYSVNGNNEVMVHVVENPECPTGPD

vicrostatin [VCN]: on α5β1, the “improvement of binding affinity to integrin a5b1” value is on record as “approximately 13 fold”. For the same substance, in the data set with platelet aggregation, the “retention of bioactivity after radioiodination, assessed by inhibition of platelet aggregation” value is “full retention of bioactivity; also recorded: full retention of biological activity”. In data set [1], the adverse effects result was “no adverse effects observed”; the “behavior, gross and microscopic examination” value was “no changes in behavior, or in gross or microscopic examination”; the body weight gain result was “gained weight indistinguishable from control”; the hematological parameters result is on record as “no significant differences in hematological parameters”. In addition, in the data set on U87 GBM cells, the “tumor growth (tumor size versus PBS)” value is recorded as “significant (p<0.001) attenuation of tumor growth”.

With contortrostatin [CN], in data set [2], the hemorrhage entry was “minimal and localized to the injection needle track”. Moreover, the immune response result is reported as “no evidence of an immune response” in data set [3] (intracranial 50 μg, tumor-bearing (U87 GBM) or tumor-free rodents, 7 days) and “no evidence of an immune response” in data set [3] (intracranial 150 μg, after 7, 14 or 21 days). For the same substance, the figures for the “radioactivity in the brain at 24 hours” value in the data set with C6 rat GBM cells (tumor-bearing (C6) rats) and in the data set on C6 rat GBM cells (tumor-free rats) were “the vast majority of radioactivity was still retained” and “disappeared from the brains of tumor-free rats”, respectively. In the data set on GBM, the survival entry was “significantly (p<0.008) improved survival”.
